Results taken from paper PMC12401969, “The gut microbiota protein BOC1 exhibits immune checkpoint inhibitor-like activity by inhibiting myeloid-derived suppressor cell differentiation” (Frontiers in Immunology, 2025).

T1: biotinylated CD200R1 (UniProt Q8TD46 29-265, biotin (site not stated))
T1 construct: CD200R1 (CD200 receptor 1), soluble biotinylated protein; Held on streptavidin Donor beads in the AlphaLISA; also called CD200R1-(biot)
T1 sequence (looked up): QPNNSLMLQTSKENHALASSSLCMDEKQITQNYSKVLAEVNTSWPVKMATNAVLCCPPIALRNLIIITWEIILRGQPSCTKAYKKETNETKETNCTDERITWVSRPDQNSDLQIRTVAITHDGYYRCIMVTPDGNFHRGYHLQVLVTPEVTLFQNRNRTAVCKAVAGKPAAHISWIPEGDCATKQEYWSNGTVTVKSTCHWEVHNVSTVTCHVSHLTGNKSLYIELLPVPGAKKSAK


Experiments:
[1] = biological target: CD200R1 on human monocytes, MoDCs and MDSCs (human (endogenous in primary monocytes, MoDCs, MDSCs)) (UniProt Q8TD46)
CD200R1 on human monocytes, MoDCs and MDSCs (human (endogenous in primary monocytes, MoDCs, MDSCs)), sequence (Q8TD46 25-348): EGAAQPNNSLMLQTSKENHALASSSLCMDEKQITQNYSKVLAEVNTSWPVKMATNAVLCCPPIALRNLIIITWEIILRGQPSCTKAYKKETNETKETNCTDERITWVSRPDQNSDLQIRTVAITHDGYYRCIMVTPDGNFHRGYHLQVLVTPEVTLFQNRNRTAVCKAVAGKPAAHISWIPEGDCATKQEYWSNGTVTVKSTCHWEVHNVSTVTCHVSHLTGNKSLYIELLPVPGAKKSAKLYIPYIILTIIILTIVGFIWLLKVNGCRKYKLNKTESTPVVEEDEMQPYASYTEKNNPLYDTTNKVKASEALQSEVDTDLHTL

[2] = biological target: T1, biotinylated CD200R1; assay: AlphaScreen or HTRF; AlphaLISA; 3 nM CD200R1-(biot) with a dose response (0.1 to 100 nM) of the His-tagged protein; fit 'One site-total' (GraphPad Prism)
[3] = biological target: T1, biotinylated CD200R1; assay: AlphaScreen or HTRF; AlphaLISA; 3 nM CD200R1-(biot) with a dose response of His-tagged BOC1, its mutants, CD200 or P352 (0.1 to 300 nM by the legend, 0.1 to 100 nM by the table's footnote); fit 'One site-total' (GraphPad Prism)

| Molecule | inhibition of the differentiation of human monocytes into MDSCs (rhIL-6 + rhGM-CSF, 7 days; BOC1 at 1, 10, 50 nM), CD14+CD11b+CD33+HLA-DRlow cells by flow cytometry [1] [%] | Kd [2] [nM] | Kd [3] [nM] | Kd ([2]; both partners purified) [nM] | Kd ([3]; both partners purified) [nM] |
| --- | --- | --- | --- | --- | --- |
| BOC1-His (natural protein) | 90 | 0.38 | 0.38 | – | – |
| BOC1-m1 (Glu19) (natural protein) | – | – | 0.96 | – | – |
| BOC1-m2 (Ser34) (natural protein) | – | – | 2.78 | – | – |
| CD200-His (ligand, UniProt P41217 31-232, looked up, CD200 (OX-2), soluble His-tagged protein; Held on anti-6His Acceptor beads in the AlphaLISA; also called His-tagged CD200) QVQVVTQDEREQLYTPASLKCSLQNAQEALIVTWQKKKAVSPENMVTFSENHGVVIQPAYKDKINITQLGLQNSTITFWNITLEDEGCYMCLFNTFGFGKISGTACLTVYVQPIVSLHYKFSEDHLNITCSATARPAPMVFWKVPRSGIENSTVTLSHPNGTTSVTSILHIKDPKNQVGKEVICQVLHLGTVTDFKQTVNKG | – | – | – | 1.56 ± 0.3 | 0.95 ± 0.27 |
